Data from paper PMC5374410, “Identification of a Potent Allosteric Inhibitor of Human Protein Kinase CK2 by Bacterial Surface Display Library Screening” (Pharmaceuticals, 2017).

T1: human αS1-casein (170 aa) displayed on E. coli UT5600(DE3) by autodisplay (plasmid pKP10) (human, UniProt P47710 16-185)
T1 construct: human αS1-casein as autodisplay passenger, 510 nt, 170 aa as printed; Passenger between the cleaved signal peptide of the autotransporter precursor and the linker; also called full-length αS1-casein; not shown: AIDA-I autotransporter linker and β-barrel, C-terminal, kept
T1 sequence (looked up): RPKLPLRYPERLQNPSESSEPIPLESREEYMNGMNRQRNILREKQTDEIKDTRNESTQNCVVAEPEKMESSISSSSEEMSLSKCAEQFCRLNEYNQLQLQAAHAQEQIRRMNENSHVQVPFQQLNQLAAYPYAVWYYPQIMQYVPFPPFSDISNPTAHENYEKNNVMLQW

B1: recombinant human protein kinase CK2 holoenzyme coupled to fluorescein isothiocyanate (FITC) (complex)
chain 1: MSGPVPSRARVYTDVNTHRPREYWDYESHVVEWGNQDDYQLVRKLGRGKYSEVFEAINITNNEKVVVKILKPVKKKKIKREIKILENLRGGPNIITLADIVKDPVSRTPALVFEHVNNTDFKQLYQTLTDYDIRFYMYEILKALDYCHSMGIMHRDVKPHNVMIDHEHRKLRLIDWGLAEFYHPGQEYNVRVASRYFKGPELLVDYQMYDYSLDMWSLGCMLASMIFRKEPFFHGHDNYDQLVRIAKVLGTEDLYDYIDKYNIELDPRFNDILGRHSRKRWERFVHSENQHLVSPEALDFLDKLLRYDHQSRLTAREAMEHPYFYTVVKDQARMGSSSMPGGSTPVSSANMMSGISSVPTPSPLGPLAGSPVIAAANPLGMPVPAAAGAQQ
chain 2: not shown
modifications: FITC covalently coupled to the holoenzyme, sites not stated | FITC covalently coupled to the holoenzyme, sites not stated
notes: catalytic subunit CK2α of human protein kinase CK2; regulatory subunit CK2β of human protein kinase CK2; FITC-labelled in the flow cytometry; also called CK2-FITC; fluorophore coupled CK2; source: E. coli BL21(DE3), purified (protocol of Grankowski et al. with modifications), FITC labeling Kit (Calbiochem); copies: 2 + 2

Experiments:
[1] = target: T1, human αS1-casein (170 aa) displayed on …; experiment: flow cytometry on cells; E. coli UT5600(DE3) cells displaying the passenger by autodisplay incubated with fluorescein-coupled CK2 holoenzyme for 30 min at 37 °C in 50 mM Tris/HCl pH 7.4, 100 mM NaCl, 10 mM MgCl2, 1 mM DTT, 200 µM ATP; washed; excitation 488 nm, 527/30 nm filter; host strain without plasmid as control; details: one partner purified
[2] = target: B1; experiment: cell-based or functional assay
[3] = target: B1; experiment: cell-based or functional assay; remark: listed apart in the source
[4] = target: human CK2α, catalytic subunit alone (unlabelled) (human, UniProt P68400 1-391); experiment: cell-based or functional assay

Row | fold fluorescence intensity over control cells [1] [fold] | IC50 of inhibition of the kinase activity of (unlabelled) CK2 holoenzyme, CE assay with substrate peptide … [2] [nM] | Ki, taken as equal to the IC50 of the CE kinase assay (non-competitive inhibition with α = 1) [3] [nM] | IC50 of inhibition of the kinase activity of the catalytic subunit CK2α alone, CE assay [4] [nM] | Binder
1 | 10 | – | – | – | B1
2 | – | 800 | 800 | 800 | DCRGLIVMIKLH [peptide B2 (free synthetic peptide)]
